Assay results as given in US8440804B2, “Polypeptides having modulatory effects on cells” (Ecole Normale Superieure de Lyon, priority 2006, dated 2013).

What was measured:
[1] = system: purified CNA (calcineurin); assay: In vitro calcineurin phosphatase assay (pNPP substrate); format: biochemical
Description: (A) In vitro calcineurin phosphatase assay. Dephosphorylation of the model substrate pNPP by purified calcineurin was measured in presence of various amounts of purified calmodulin (CaM), GST-R5G42 or GST-R7G44 fusion proteins.
The inventors next explored the ability of R5G42 to modulate the enzymatic activity of its target protein. To this end, they first performed an in vitro phosphatase assay using purified CNA and para-nitrophenylphosphate (pNPP) as a substrate.
GST-aptamer fusion proteins were first produced as described above. For this experiment, GST-aptamer fusion proteins were eluted from glutathion sepharose beads using 20 mM reduced L-glutathione (Sigma), and the eluates were dialyzed overnight against a phosphatase buffer (50 mM Tris-HCl pH7.4, 0.1 mM CaCl2). The phosphatase activity of calcineurin was measured using pNPP (Sigma) as substrate, in a final volume of 100 μl. The sample solution contained 50 mM Tris-HCl (pH7.4), 0.1 mM CaCl2, 1 mM NiSO4, 0.15 mg/ml BSA (Sigma), 0.1 μM calcineurin (Upstate). Purified calmodulin (Upstate) and GST-aptamer fusion proteins were added at different concentrations (see figure legend). After a 15 min pre-incubation at 37° C., the reactions were started by adding 4.1 mM pNPP and the mixtures were incubated at 37° C. for 20 min. The nitrophenylate product was measured at 405 nm using an Envision plate reader (Perkin Elmer). The background level that was determined was subtracted using a mixture lacking calcineurin.

[2] = system: purified CNA (bovine brain purified calcineurin); assay: In vitro binding assay (affinity capture on glutathione-sepharose, western blot); conditions: glutathione-sepharose beads, anti-calcineurin western blot
From the text: (C) Affinity capture assay.
The inventors performed two yeast two-hybrid screening experiments against a LexA-R5G42 bait protein, using a human testis and a human fcetal brain cDNA library. They obtained 29 and 42 reconfirmed clones, respectively. […] The inventors thus retained two candidates. The highest occurring clone, from both libraries, corresponded to the NS5A-TP2 protein, recently discovered through a systematic search for genes that are transactivated by the non-structural NS5A protein from hepatitis C virus (22). No biological knowledge is currently available for this protein. The other remaining target candidate was calcineurin A (CNA), for which two different isoforms (beta and gamma) were selected from the testes library (see FIG. 3A). To confirm the interaction between R5G42 and CNA, the inventors performed an in vitro binding assay between recombinant purified GST-aptamer fusion proteins, coupled to a glutathione-sepharose matrix, and purified CNA.
In Vitro Binding Assay pVRV6-aptamer plasmids were first digested with EcoRI and XhoI and the fragments were ligated into EcoRI/XhoI-cut pGEX4T1. GST-aptamer fusions were expressed in a BL-21(DE3) E. coli strain. […] The samples were loaded onto a SDS-PAGE, transferred to nitrocellulose membrane, and calcineurin was detected by western-blotting using an anti-calcineurin pan A antibody (1/1000, Chemicon International). […]

Molecule	activation of CNA phosphatase activity ([1]; addition of purified calmodulin, pNPP)	CNA phosphatase activity in absence of CaM ([1]; high concentrations of GST-aptamer, pNPP, 0.1 μM calcineurin)	effect on CaM-activated CNA phosphatase activity ([1]; in presence of CaM (not shown))	capture of purified CNA by GST-aptamer solid phase [2]
calmodulin [CaM, reference compound]	required to activate CNA	–	–	–
GST-R5G42: recombinant purified GST-aptamer fusion protein of R5G42 (protein, left off: a dimerising Fc or GST) MVKQIESKTAFQEALDAAGDKLVVVDFSATWCGPSAVTFAVCALGPCKMIKPFFHSLSEKYSNVIFLEVDVDDCQDVASECEVKCMPTFQFFKKGQKVGEFSGANKEKLEATINELV	–	activated CNA phosphatase activity in absence of CaM, to a level comparable to that observed using CaM	did not result in an inhibition or an exacerbation	readily captured CNA
